Tests used:
[1] = target: T1, Sp35 fragment 417-498 human Fc (human, UniProt Q96FE5 423-504); assay: fragment binding
T1 construct: not shown: Fc, printed 'human Fc'
T1 sequence: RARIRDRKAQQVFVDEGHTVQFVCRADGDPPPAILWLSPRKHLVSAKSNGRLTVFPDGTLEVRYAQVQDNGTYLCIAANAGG

[2] = target: T2, mouse Sp35 protein expressed on transfected cells (mouse, UniProt Q9D1T0 36-614); assay: FACS direct binding, CHO cells stably transfected with murine Sp35 (LINGO-1), mean fluorescence (MCF) against antibody concentration [panel Murine]
T2 construct: whole, on cells; also called mSp35; mLINGO-1
T2 sequence (looked up): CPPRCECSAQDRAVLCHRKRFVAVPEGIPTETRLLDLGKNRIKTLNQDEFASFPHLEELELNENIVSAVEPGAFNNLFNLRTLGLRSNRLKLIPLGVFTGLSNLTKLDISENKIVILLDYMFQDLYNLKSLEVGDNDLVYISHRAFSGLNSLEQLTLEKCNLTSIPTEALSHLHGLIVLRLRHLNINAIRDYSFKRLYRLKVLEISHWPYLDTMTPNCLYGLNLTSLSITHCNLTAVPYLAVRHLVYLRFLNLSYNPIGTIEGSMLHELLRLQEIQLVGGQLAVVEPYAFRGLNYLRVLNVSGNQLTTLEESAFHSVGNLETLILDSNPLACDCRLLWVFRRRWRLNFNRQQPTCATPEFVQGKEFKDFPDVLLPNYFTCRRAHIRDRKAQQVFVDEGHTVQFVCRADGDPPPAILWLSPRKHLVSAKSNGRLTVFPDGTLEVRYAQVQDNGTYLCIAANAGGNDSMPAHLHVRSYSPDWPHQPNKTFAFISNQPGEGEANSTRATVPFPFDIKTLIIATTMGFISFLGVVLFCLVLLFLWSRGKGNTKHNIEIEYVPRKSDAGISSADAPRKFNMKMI
Experimental: (§1) In similar experiments, CHO cells stably transfected with Sp35 were used in FACS analysis to further characterize the binding properties of 3B5.2 and 7P1D5.1G9. […] Specifically, the 3B5.2 and 7P1D5.1G9 antibodies were tested for their ability to bind CHO cells transfected with, and expressing, human or murine Sp35. […] Additionally, the 3B5.2 antibody bound more cells as measured by the mean fluorescence (MCF) than 7P1D5.1G9.

Ig region of Sp35 = target: T3, Ig region of Sp35 (Homo sapiens (Human), UniProt Q96FE5 425-499); assay: ELISA
T3 sequence: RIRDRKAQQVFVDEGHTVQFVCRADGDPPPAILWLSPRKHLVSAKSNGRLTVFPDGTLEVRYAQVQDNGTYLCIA
Experimental: Ovalbumin and BSA were used as controls. […] The affinity of these latter antibodies for mouse and rat Sp35 was restored to the level seen using human Sp35 when amino acid 419 of the mouse or rat Sp35 is changed from histidine (H) to arginine (R). Arginine is the amino acid at position 419 in human Sp35. […] AP substrate was then developed by 10 mg/ml 4 NPP in 0.1 M Glycine, 1 mM MgCl₂, 1 mM ZnCl₂, pH 10.5, and read at O.D. 405.
In similar experiments, monoclonal antibodies 3B5.2 and 7P1D5.1G9, as well as the Fab fragment of the 7P1D5.1G9 antibody were tested in ELISA assays for their ability to bind human Sp35, the entire LRR region of Sp35, the Ig region of Sp35 and murine Sp35. […] The 3B5.2 and 7P1D5. 1G9 monoclonal antibodies also bound the LRR region of Sp35.

[3] = target: T4, human Sp35 protein expressed on transfected cells (human, UniProt Q96FE5 40-620); assay: FACS direct binding, CHO cells stably transfected with human Sp35 (LINGO-1), mean fluorescence (MCF) against antibody concentration [panel Human]
T4 construct: also called huSp35; hLINGO-1
T4 sequence: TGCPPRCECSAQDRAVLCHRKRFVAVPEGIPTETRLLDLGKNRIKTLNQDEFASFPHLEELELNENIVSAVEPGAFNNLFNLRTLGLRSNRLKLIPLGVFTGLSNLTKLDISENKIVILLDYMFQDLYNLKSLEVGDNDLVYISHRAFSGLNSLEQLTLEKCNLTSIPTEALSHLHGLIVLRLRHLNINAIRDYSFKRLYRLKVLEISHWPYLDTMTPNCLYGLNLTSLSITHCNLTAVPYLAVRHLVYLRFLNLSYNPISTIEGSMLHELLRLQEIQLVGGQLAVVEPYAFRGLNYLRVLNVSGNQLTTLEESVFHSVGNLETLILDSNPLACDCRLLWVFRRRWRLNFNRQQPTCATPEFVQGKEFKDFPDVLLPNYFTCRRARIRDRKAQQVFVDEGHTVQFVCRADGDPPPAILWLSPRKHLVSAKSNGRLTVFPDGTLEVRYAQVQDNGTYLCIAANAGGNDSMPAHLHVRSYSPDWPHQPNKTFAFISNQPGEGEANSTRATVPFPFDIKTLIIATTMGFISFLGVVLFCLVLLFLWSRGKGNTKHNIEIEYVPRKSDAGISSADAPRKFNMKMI
Experimental: as §1

AP-Sp35 (418-498) = target: T5, AP-Sp35 (418-498) (Homo sapiens (Human), UniProt Q96FE5 424-504); assay: fragment binding
T5 sequence: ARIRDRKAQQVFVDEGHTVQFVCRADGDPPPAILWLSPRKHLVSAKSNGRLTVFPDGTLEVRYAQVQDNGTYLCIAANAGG

B1: D13 (full-length antibody with the Li13 variable region) (antibody, V domains shown)
VH: EVQLLESGGGLVQPGGSLRLSCAASGFTFSHYEMYWVRQAPGKGLEWVSRIVSSGGFTKYADSVKGRFTISRDNSKNTLYLQMNSLRAEDTAVYYCATEGDNDAFDIWGQGTTVTVSS
VL: DIQMTQSPATLSLSPGERATLSCRASQSVSSYLAWYQQKPGQAPRLLIYDASNRATGIPARFSGSGSGTDFTLTISSLEPEDFAVYYCQQRSNWPMYTFGQGTKLEIK
notes: also called 72-D03 (Dli13) Ab
binding result [1]: no binding

B2: 3B5.2 monoclonal antibody (ATCC PTA-8106) (antibody, mouse IgG1, V domains shown)
VH: QVQLQQPGAELVRPGTSVKLSCRASGYTFTSYWMHWVKQRPGQGLEWIGVIDPSDSYTNYNQKFRGKATLTVDTSSSTAYMQLSSLTSEDSAVYYCARPYYGSHWFFDVWGTGTTVTVSS
VL: QIVLTQSPAIMSASPGEKVTMTCSASSRVSYVHWYQQKSGTSPKRWLYDTSNLASGVPARFGGNGSGTSYSLTISSMEAEDAATYYCQQWSTNPPTFGGGTKLEIK
modifications: N-linked glycosylation site in FR3 (appears glycosylated)
notes: murine IgG1/kappa; also called 2.P3B5.2
EC50 (read off the curve) [2]: ~0.4 nM | binding result (Ig region of Sp35): no binding | EC50 (read off the curve) [3]: ~0.4 nM

B3: D06 (full-length antibody with the Li06 variable region) (antibody, V domains shown)
VH: EVQLLESGGGLVQPGGSLRLSCAASGFTFSEYPMDWVRQAPGKGLEWVSSIYSSGGSTVYADSIKGRFTISRDNSKNTLYLQMNSLRAEDTAVYYCAREGDSDAFDIWGQGTMVTVSS
VL: DIQMTQSPSTLSASVGDRVTITCRASQSISSWLAWYQQKPGKAPNLLIYAASSLRTGVPSRFRGSGSGTDFTLTISSLQPEDFATYYCLQDYSYPLTFGQGTKLEIK
notes: also called 34-F02 (Dli06) Ab
binding result (AP-Sp35 (418-498)): no binding
